# Test results reported in the supplement of paper PMC9233669.
# This sample holds only a part of the variants without activity.
# Tests used:
# biotinyl-Val-oxazolone = assay: self-aminoacylation, catalytic enhancement (BVO) (fold over background); higher = more active; k-Seq, kA / k0A0; sequences stand for … in GGGAAUGGAUCCACAUCUACGAAUUC…UUCACUGCAGACUUGACGAAGCUG
# Summary of the method: (§1)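 Each biotinyl-aminoacyl-oxazolone, at 2–1250 μM, was incubated with mutagenized RNA pools (0.43 μM) carrying a 21-nt variable region. The 50 μL reactions contained HEPES/NaCl/KCl/MgCl2/CaCl2 buffer with 5% acetonitrile at pH 6.9–7.0 and ran for 90 minutes at room temperature. After streptavidin capture, RNA was measured by qPCR in triplicate and by Illumina sequencing, and catalytic enhancement was calculated as median kA over the uncatalyzed rate from a pseudo-first-order fit of per-sequence fraction reacted.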
# biotinyl-Met-oxazolone = assay: self-aminoacylation, catalytic enhancement (BMO) (fold over background); higher = more active; k-Seq, kA / k0A0; sequences stand for … in GGGAAUGGAUCCACAUCUACGAAUUC…UUCACUGCAGACUUGACGAAGCUG
# Summary of the method: as §1
# biotinyl-Phe-oxazolone = assay: self-aminoacylation, catalytic enhancement (BFO) (fold over background); higher = more active; k-Seq, kA / k0A0; sequences stand for … in GGGAAUGGAUCCACAUCUACGAAUUC…UUCACUGCAGACUUGACGAAGCUG
# Summary of the method: as §1
# biotinyl-Leu-oxazolone = assay: self-aminoacylation, catalytic enhancement (BLO) (fold over background); higher = more active; k-Seq, kA / k0A0; sequences stand for … in GGGAAUGGAUCCACAUCUACGAAUUC…UUCACUGCAGACUUGACGAAGCUG
# Summary of the method: as §1
# biotinyl-Ile-oxazolone = assay: self-aminoacylation, catalytic enhancement (BIO) (fold over background); higher = more active; k-Seq, kA / k0A0; sequences stand for … in GGGAAUGGAUCCACAUCUACGAAUUC…UUCACUGCAGACUUGACGAAGCUG
# Summary of the method: as §1
# biotinyl-Trp-oxazolone = assay: self-aminoacylation, catalytic enhancement (BWO) (fold over background); higher = more active; k-Seq, kA / k0A0; sequences stand for … in GGGAAUGGAUCCACAUCUACGAAUUC…UUCACUGCAGACUUGACGAAGCUG
# Summary of the method: as §1
Sequence,self-aminoacylation (biotinyl-Val-oxazolone),self-aminoacylation (biotinyl-Met-oxazolone),self-aminoacylation (biotinyl-Phe-oxazolone),self-aminoacylation (biotinyl-Leu-oxazolone),self-aminoacylation (biotinyl-Ile-oxazolone),self-aminoacylation (biotinyl-Trp-oxazolone)
AAGCUUGCUAAUAGUCGCAAG [Fam3.1 aminoacylation ribozyme variant],1.59,1.69,3.96,1.67,1.85,2.02
CUACUCCAAACAAUCGAUCUG [Fam1A.1 aminoacylation ribozyme variant],0.661,0.48,0.831,0.533,0.704,0.384
CUAGUUCAAAGAAUCGGUCUG [Fam1A.1 aminoacylation ribozyme variant],0.951,1.04,1.5,1.14,0.967,1.44
CGACACUUCCAGCAAUCGGUC [Fam1B.1 aminoacylation ribozyme variant],1.49,1.14,0.915,1.19,1.56,1.15
AUUACCCUGGUAUUCGAGUGA [Fam2.1 aminoacylation ribozyme variant],3.65,7.43,42.4,7.89,3.56,9.54
AUUACCCUGGUCAGCGUGUGA [Fam2.1 aminoacylation ribozyme variant],3.59,5.28,30.9,5.25,2.79,6.56
AUUCACCUAGGUCAUCGGGGC [Fam2.2 aminoacylation ribozyme variant],4.81,7.18,20.7,11.5,4.85,5.91
GCACACUACAAGCAAUCGGUC [Fam1B.1 aminoacylation ribozyme variant],1.26,0.979,1.55,1.14,1.36,1.68
AAGUUUGGUAAUAGUCGCACG [Fam3.1 aminoacylation ribozyme variant],1.11,1.07,1.98,1.45,1.18,1.09
CUGCUUCAAACAAUCGGUAUG [Fam1A.1 aminoacylation ribozyme variant],1.33,1.56,75.4,2.5,1.29,40.2
CUACUUCAAAUAAUCGGCCUG [Fam1A.1 aminoacylation ribozyme variant],0.985,0.902,14.5,1.36,1.11,12
AUUCCCCUGGUCAUCGAGUGC [Fam2.1 aminoacylation ribozyme variant],1.64,1.35,1.33,1.63,1.36,2.07
AUUCACUUAGGUCAUCGUGUG [Fam2.2 aminoacylation ribozyme variant],0.777,0.802,0.821,0.869,0.779,0.747
AUUUCCCGGGUCAUCGAGUGA [Fam2.1 aminoacylation ribozyme variant],3.93,5.43,45.6,6.51,3.37,6.24
CAGUUUGCUAAUAGACGCAAG [Fam3.1 aminoacylation ribozyme variant],0.858,0.814,1.08,0.895,0.91,1.61
AUUCACCUAGGGCAUCUGGUG [Fam2.2 aminoacylation ribozyme variant],2.33,2.63,13,3.23,2.11,2.64
CUACUUGAAACGAUCGGUCUG [Fam1A.1 aminoacylation ribozyme variant],1.05,1.11,0.916,1.24,0.968,0.726
AAGCUAGCUAAUAGUCGCAAG [Fam3.1 aminoacylation ribozyme variant],1.62,1.36,4.5,2.26,2.2,2.47
AUUACCCUGGGAAUCGAGUGA [Fam2.1 aminoacylation ribozyme variant],3.29,5.72,26.8,5.93,2.78,4.59
GUUCACCUAGGUCAUGGGGUG [Fam2.2 aminoacylation ribozyme variant],3.01,3.63,10.3,4.4,2.64,4.06
AUUUCCCUGGUCAUCGAGAGA [Fam2.1 aminoacylation ribozyme variant],1.27,0.896,1.31,1.1,1.2,0.74
CGACUUCAAAGAAUCGGUCUG [Fam1A.1 aminoacylation ribozyme variant],1.3,1.32,9.34,1.66,1.31,7.38
AUGACCCUGGUCACCGAGUGA [Fam2.1 aminoacylation ribozyme variant],5.03,10.5,45.5,11.7,3.68,9.23
AUGCACAUAGGUCAUCGGGUG [Fam2.2 aminoacylation ribozyme variant],6.08,10.5,73.3,10.2,6.5,10.4
AUUACCCUGGACAUCGAGCGA [Fam2.1 aminoacylation ribozyme variant],1.07,1.45,1.24,1.26,1.24,1.34
AAGUUUGCCACUAGUCGCAAG [Fam3.1 aminoacylation ribozyme variant],1.15,0.991,0.709,0.973,0.918,0.807
